Laboratory results: US20160257710A1, “SELECTIVE INHIBITORS OF PROTEINASE 3” (INSERM (INSTITUT NATIONAL DE LA SANTÉ ET LA RECHERCHE …, priority 2013, published 2016)
Positions count from the first letter of the chain named. Where no end group is shown, it is not given here. [ ]: non-standard residue; d: D form. The star is where a group is joined. EDDnp = O=[N+]([O-])c1ccc(NCCN*)c([N+](=O)[O-])c1; AlaP = not defined here

How the values were obtained:
wtPR3 = biological target: T1, wtPR3 (Homo sapiens, UniProt P24158); test: Hydrolysis of FRET substrates, specificity constant kcat/KM; type: biochemical
T1 sequence (P24158 28-248): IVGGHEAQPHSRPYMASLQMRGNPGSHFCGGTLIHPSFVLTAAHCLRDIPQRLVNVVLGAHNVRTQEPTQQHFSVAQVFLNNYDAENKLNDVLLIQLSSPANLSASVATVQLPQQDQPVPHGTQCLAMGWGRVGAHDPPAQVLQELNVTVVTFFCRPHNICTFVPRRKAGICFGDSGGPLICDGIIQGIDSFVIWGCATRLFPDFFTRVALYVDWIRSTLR
Experimental: (§1) Another critical difference between the two proteases is the replacement of a charged arginyl residue at position 217 in HNE by an Ile in PR3 in the vicinity of the S4 subsite. We investigated the importance of the S4 subsite in PR3 by producing two recombinant PR3 molecules with a […] substitution at position 99 (PR3K99L) and an Ile for Arg substitution at position 217 (PR3I217R). Wild type and recombinant PR3 were then assayed with FRET substrates derived from the PR3/NE substrate Abz-QPMAVVQSVPQ-EDDnp, and bearing either a negatively charged residue (Abz-QDMAVVQSVPQ-EDDnp) or a positively charged residue (QKMAVVQSVPQ-EDDnp) at P4. Wild type and recombinant proteases all cleave the original substrate at the V—V bond with about the same kcat/Km (Table 2).
We observed that a large panel of amino acid residues could be accommodated at the PR3 P3 subsite using a series of FRET substrates but a Tyr was preferred at this position (Table 3).

PR3I217R [1] = biological target: T2, PR3I217R (Homo sapiens, UniProt P24158, I221R); test: as above; type: biochemical
T2 construct: made in house; host or cells: Drosophila S2 cells
T2 sequence (P24158 28-248 I221R limits assumed): T1 sequence (P24158 28-248) with I194R
Experimental: (§2) Recombinant PR3K99L and […] were produced in Drosophila S2 cells using the calcium phosphate method, and stable cell lines were selected using puromycin. Proteins were purified by affinity chromatography on Chelating Sepharose and analyzed by SDS-PAGE. The total protein concentration was determined with a BCA Protein Assay
as §1

PR3K99L [2] = biological target: T3, PR3K99L (Homo sapiens, UniProt P24158, K115L); test: as above; type: biochemical
T3 construct: made in house; host or cells: Drosophila S2 cells
T3 sequence (P24158 28-248 K115L limits assumed): T1 sequence (P24158 28-248) with K88L
Experimental: as §2, §1

CatG [3] = biological target: T4, CatG (Homo sapiens, UniProt P08311); test: Residual activity of purified protease with FRET substrate in presence of increasing amounts of compound; type: biochemical; settings: CatG 1 nM, same experimental conditions as PR3
T4 sequence (P08311 21-244): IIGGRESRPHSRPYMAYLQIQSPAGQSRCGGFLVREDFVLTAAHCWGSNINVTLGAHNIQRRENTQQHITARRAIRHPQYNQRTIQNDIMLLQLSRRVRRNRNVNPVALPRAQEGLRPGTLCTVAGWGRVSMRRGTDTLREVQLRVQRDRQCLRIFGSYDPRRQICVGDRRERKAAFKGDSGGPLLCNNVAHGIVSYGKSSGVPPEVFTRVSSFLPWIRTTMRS
Excerpt: (§3) Phosphonate inhibitors and their biotinylated and fluorescent derivatives were synthesized, purified and controlled by mass spectrometry as reported. Their purity was checked by HPLC (data not shown). Purified Ac-Asp-Tyr-Asp-Ala^P(O—C6H4-4-Cl)2 (compound 1) and Ac-Pro-Tyr-Asp-Ala^P(O—C6H4-4-Cl)2 (compound 2) were first assayed for their inhibitory properties by measuring the residual activity of the human neutrophil serine proteases PR3, HNE and CatG in the presence of increasing amounts of each compound. We used for this purpose the FRET substrates that we developed previously for each protease (18). An almost complete inhibition of PR3 (1 nM final) was obtained after a 30 min incubation time with 20 μM of compound 1 (FIG. 1) and 0.3 μM of compound 2 (FIG. 2). Recombinant PR3K99L, […], HNE and CatG were used in the same experimental conditions. […] This emphasizes the importance of the S2 and S4 subsites to discriminate between PR3 and HNE specificities. Significant inhibition of HNE was obtained using about 100 times more Ac-Pro-Tyr-Asp-Ala^P(O—C6H4-4-Cl)2 than required to inhibit PR3. […] We confirmed this observation kinetically by measuring the second order rate constants kobs/l by competition experiments between the PR3 substrate and each inhibitor (17). As expected the second order rate constant kobs/l for compound 2 was about 100 times greater than that for compound 1 (see Table 1).

PR3 [4] = biological target: T5, PR3 (Homo sapiens, UniProt P24158); test: as above; type: biochemical; settings: PR3 1 nM final, 30 min incubation
T5 construct: in a lysate of purified human neutrophils; endogenous in cells; host or cells: purified human neutrophils (lysate)
T5 sequence (P24158 28-248): T1 sequence (P24158 28-248)
Excerpt: as §3

HNE [5] = biological target: T6, HNE (Homo sapiens, UniProt P08246); test: as above; type: biochemical; settings: HNE 1 nM, same experimental conditions as PR3
T6 sequence (P08246 30-267): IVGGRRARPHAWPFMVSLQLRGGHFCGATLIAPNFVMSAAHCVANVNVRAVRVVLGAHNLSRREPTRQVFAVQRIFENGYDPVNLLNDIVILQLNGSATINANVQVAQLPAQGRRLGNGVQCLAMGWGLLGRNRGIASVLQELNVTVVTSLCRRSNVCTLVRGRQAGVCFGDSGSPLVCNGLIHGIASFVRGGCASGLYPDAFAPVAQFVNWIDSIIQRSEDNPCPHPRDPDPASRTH
Excerpt: as §3

PR3 [6] = biological target: T5, PR3; test: Inhibition of PR3 in a lysate of purified human neutrophils; type: biochemical; settings: conditions as with purified proteases
Excerpt: (§4) We first studied the stability and the selectivity of compound 1, 2 and their biotinylated derivatives in a lysate of purified human neutrophils. […] Further, PR3 was selectively inactivated in the neutrophil lysate as shown by western blotting using biotinylated inhibitors.

PR3I217R [7] = biological target: T2, PR3I217R; test: Residual activity of recombinant PR3 mutant in presence of increasing amounts of compound; type: biochemical
Experimental: as §2, §3

PR3K99L [8] = biological target: T3, PR3K99L; test: as above; type: biochemical; settings: Lys99 replaced by Leu in S2 subsite
Experimental: as §2, §3

Elastase = biological target: T7, Elastase (Homo sapiens, UniProt P08246); test: Protease inhibition assay, second order rate constant kobs/[I] (method of Tian and Tsou); type: biochemical; settings: n.s where no significant inhibition
T7 sequence (P08246 30-267): T6 sequence (P08246 30-267)
Experimental: (§5) The inactivation of proteases by substrate analog inhibitors in the presence of the substrate by competition for the enzyme-binding site, was measured by the method of Tian and Tsou (17). In this system, product formation in the presence of an irreversible inhibitor approaches an asymptote, as described by
(§6) log([P∞]−[P])=log [P∞]−0.43A[Y]t
(§7) where [P∞] is the concentration of product formed at time approaching infinity, [P] is the concentration of product at time t, [Y] is the inhibitor concentration, and A is the apparent inhibition rate constant in the presence of the substrate. A is given by
(§8) where k+0 is the rate constant for association of the inhibitor with the enzyme, K^−1 is the inverted Michaelis constant, and [S] the substrate concentration. The apparent inhibition rate constant A is the slope of a plot of log([P∞]−[P]) against t, to give the second-order rate constant of inhibition k+0

Proteinase 3 = biological target: T8, Proteinase 3 (Homo sapiens, UniProt P24158); test: as above; type: biochemical
T8 sequence (P24158 28-248): T1 sequence (P24158 28-248)
Experimental: The compounds of the invention are advantageously selective inhibitors of PR3. […] As described under the Examples below (see PR3 inhibition assay), and as is generally known, efficacy of particular inhibitors against a target protease, for example, recombinant human PR3, is determined by combining the target with a substrate (for example Suc-AanV-SBzI), both in the absence of the inhibitor and in the present of different concentrations of such inhibitor to be tested. Typically, the efficacy of irreversible inhibitors are measured in terms of the second order rate constant of inhibition value (11) or kobs/l. Preferred inhibitors of the invention have typically a kobs/I of more than 10 M^−1s^−1, preferably more than 100 M^−1s^−1, and more preferably of more than […].
as §5, §6, §7, §8

[9] = Stability of inhibitors in neutrophil lysate (preincubation before adding substrates); type: in vitro ADME, human; settings: one hour preincubation of neutrophil lysate-inhibitor mixture
Excerpt: as §4

CatG [10] = biological target: T4, CatG; test: Inhibition of protease activity in crude lung secretions of patients (IPF, cystic fibrosis); type: biochemical; settings: 30 min incubation, IPF and CF samples
HNE [11] = biological target: T6, HNE; test: as above; type: biochemical; settings: 30 min incubation, IPF and CF samples
PR3 [12] = biological target: T5, PR3; test: as above; type: biochemical; settings: 30 min incubation, IPF and CF samples
Experimental: Crude lung secretions of patients with chronic inflammatory disorders associating significant neutrophil recruitment (IPF, Cystic fibrosis) were used as biological material to assay the efficacy of phosphonate inhibitors. We first measured the rate of cleavage of the PR3 substrate in >3 IPF and >3 CF crude samples before and after incubation with compounds 2 and 4 (×μM final). All crude samples cleaved the PR3 substrate in the absence of inhibitor and the cleavage always occurred at the expected bond, i.e. the cleavage bond of PR3, as checked by HPLC. The PR3 concentration was in the 0.1-1 μM range in lung secretions, based on the rate of substrate hydrolysis. […] Further, the rate of PR3 inactivation in a crude biological sample […] that of purified PR3, which means that there is no adverse effect impairing the PR3 inhibition in lung secretions of patients with inflammatory disorders.

Row | Substance | factor of decrease of kcat/Km versus original substrate, wtPR3 (wtPR3) | factor of increase of kcat/Km versus original substrate, PR3I217R (PR3I217R [1]) [times] | cleavage by PR3K99L (PR3K99L [2]) | inhibition of CatG (CatG [3]) | concentration giving almost complete inhibition of PR3 (PR3 [4]) [µM] | inhibition of HNE (HNE [5]) | PR3 activity in neutrophil lysate (PR3 [6]) | inhibition of the Ile217 to Arg217 PR3 mutant compared with PR3K99L (PR3I217R [7]) | sensitivity of PR3K99L to inhibition compared with wt PR3 (PR3K99L [8]) | Elastase kobs/[I] (Elastase) | Proteinase 3 kobs/[I] (Proteinase 3) [M⁻¹ s⁻¹] | inhibition potential after preincubation in neutrophil lysate [9] | CatG activity in crude lung secretions (CatG [10]) | HNE activity in crude lung secretions (HNE [11]) | kobs/I range (Proteinase 3; PR3) | hydrolysis of PR3 substrate in crude lung secretions (PR3 [12])
1 | ABZ-Gln-Asp-Met-Ala-Val-Val-Gln-Ser-Val-Pro-Gln-EDDnp (Abz-QDMAVVQSVPQ-EDDnp) [FRET substrate with negatively charged residue at P4] | 3 | 6 | completely resists cleavage |  |  |  |  |  |  |  |  |  |  |  |  | 
2 | Ac-Asp-Tyr-Asp-Ala^P(O—C6H4-4-Cl)2 (Ac-DYD[AlaP]; not fully specified (C-terminus); printed as Ac-Asp-Tyr-Asp-Ala^P(O—C6H4-4-Cl)2; reading uncertain; also: C-terminal Ala as phosphonate analogue (Ala^P)) [Compound 1] |  |  |  | no significant inhibition | 20 | no significant inhibition | totally inactivated | more efficient toward this mutant | far less sensitive to inhibition | n.s | 1.9 ± 0.3 | No loss of the inhibition potential |  |  |  | 
3 | Biotin-Pro-Tyr-Asp-Ala^P(O—C6H4-4-Cl)2 [Compound 4] |  |  |  |  |  |  |  |  |  | n.s | 4168 ± 553 |  | remained unchanged | remained unchanged | ~10^3 M^−1s^−1 | total inhibition
